Source: US20160053277A1, “Compositions Having Dicamba Decarboxylase Activity and Methods of Use” (PIONEER HI-BRED INTERNATIONAL, INC., priority 2013, published 2016)

B1: 544 (protein)
chain: MAQGKVALEEHFAIPETLQDAAGFVPGDYWKELQHRLLDIQDTRLKEMDKHEIGTMVLSLAAPAVQAIPDRRKAIELARRANDFLAEEVAKRPDRFLAFAALPLQDVDAATSELQRCVNDLGFVGAMVNGFSQEGDGQTPLYYDLPQYRPFWGEVEKLDVPFYLHPRNPLPQDSRIYDGHPWLLGPTWAFAQETAVHALRLMASGLFDEHPRLNIILGHLGEGLPYMMYRIDHRIAWVKAPPDYPAKRRFMDYFLENFWITTSGNFRTQTLIDAILEIGADRILFSTDWPFENIDHAADWFNATSIAEADRVKIGRTNARNLFKLDVS
modifications: Dicamba decarboxylase variant
B2: 554 (protein)
chain: MAQGLVALEEHFAIPETLQDAAGFVPGDYWKELQHRLMDIQDTRLKEMDKHGIGTMVLSLAAPAVQGIVDRRKAIEIAKRANDFLAEEVAKRPDRFLAFAALPLQDVDAATEELQRCVADLGFVGAMVNGFSQEGDGQTPLYYDLPQYRPFWGEVEKLDVPFYLHPRNPLPQDARIYDGHPWLLGPTWAFAQETAVHALRLMASGLFDEHPRLNIILGHLGEGLPYMMYRIDHRIAWVKAPPDYPAKRRFMDYFLENFWITTSGNFRTQTLIDAILEIGADRILFSTDWPFENIDHAADWFAATSIAEADRVKIGRTNARRLFKLDVS
modifications: Dicamba decarboxylase variant
B3: 547 (protein)
chain: MAQGLVALEEHFAIPETLQDAAGFVPGDYWKELQHRLLDIQDTRLKEMDKHEIGTMILSLAAPAVQAIPDRRKAIELAKRANDFLAEEVAKRPDRFLAFAALPMQDVDAATEELQRCVADLGFVGAMVNGFSQEGDGQTPLYYDLPQYRPFWKEVEKLDVPFYLHPRNPLPQDARIYDGHPWLLGPTWAFAQETAVHALRLMASGLFDEHPRLNIILGHMGEGLPYMMYRIDHRIAWVKAPPRYPAKRRFMDYFLENFHITTSGNFRTQTLIDAILEIGADRILFSTDWPFENIDHAADWFNATSIAEADRVKIGRTNARRLFKLDVR
modifications: Dicamba decarboxylase variant
B4: 542 (protein)
chain: MAQGKVALEEHFAIPETLQDAAGFVPGDYWKELQHRLLDIQDTRLKEMDRHGIGTMVLSLAAPAVQAIPDRRKAIEIARRANDFLAEEVAKRPDRFLAFAALPLQDVDAATEELQRCVADLGFVGAMVNGFSQEGDGQTPLYYDLPQYRPFWKEVEKLDVPFYLHPRNPLPQDSRIYDGHPWLLGPTWAFAQETAVHALRLMASGLFDEHPRLNIILGHMGEGLPYMMYRIDHRIAWVKAPPDYPAKRRFMDYFLENFHITTSGNFRTQTLIDAILEIGADRILFSTDWPFENIDHAADWFAATSIAEADRVKIGRTNARRLFKLDGR
modifications: Dicamba decarboxylase variant
B5: 543 (protein)
chain: MAQGLVALEEHFAIPETLQDAAGFVPGDYWKELQHRLLDIQDTRLKEMDKHGIGTMVLSLAAPAVQAIPDRRKAIEIARRANDFLAEEVAKRPDRFLAFAALPLQDVDAATEELQRCVNDLGFVGAMVNGFSQEGDGQTPLYYDLPQYRPFWGEVEKLDVPFYLHPRNPLPQDARIYDGHPWLLGPTWAFAQETAVHALRLMASGLFDEHPRLNIILGHLGEGLPYMMYRIDHRIAWVKAPPDYPAKRRFMDYFLENFWITTSGNFRTQTLIDAILEIGADRILFSTDWPFENIDHAADWFNATSIAEADRVKIGRTNARRLFKLDVR
modifications: Dicamba decarboxylase variant
B6: 549 (protein)
chain: MAQGLVALEEHFAIPETLQDAAGFVPGCYWKELQHRLLDIQDTRLKEMDRHEIGTMVLSLAAPAVQAIPDRRKAIELAKRANDFLAEEVAKRPDRFLAFAALPLQDVDAATEELQRCVNDLGFVGAMVNGFSQEGDGQTPLYYDLPQYRPFWGEVEKLDVPFYLHPRNPLPQDARIYDGHPWLLGPTWAFAQETAVHALRLMASGLFDEHPRLNIILGHMGEGLPYMMYRIDHRIAWVKAPPDYPAKRRFMDYFLENFHITTSGNFRTQTLIDAILEIGADRILFSTDWPFENIDHAADWFAATSIAEADRVKIGRTNARRLFKLDGS
modifications: Dicamba decarboxylase variant
B7: 548 (protein)
chain: MAQGKVALEEHFAIPETLQDAAGFVPGDYWKELQHRLMDIQDTRLKEMDRHGIGTMVLSLAAPAVQAIPDRRKAIEIARRANDFLAEEVAKRPDRFLAFAALPMQDPEAATSELQRCVADLGFVGAMVNGFSQEGDGQTPLYYDLPQYRPFWGEVEKLDVPFYLHPRNPLPQDARIYDGHPWLLGPTWAFAQETAVHALRLMASGLFDEHPRLNIILGHMGEGLPYMMYRIDHRIAWVKAPPDYPAKRRFMDYFLENFHITTSGNFRTQTLIDAILEIGADRILFSTDWPFENIDHAADWFNATSIAEADRVKIGRTNARNLFKLDVR
modifications: Dicamba decarboxylase variant
B8: 546 (protein)
chain: MAQGKVALEEHFAIPETLQDAAGFVPGDYWKELQHRLLDMQDTRLKEMDKHGIGTMVLSLAAPAVQAIVDRRKAIELARRANDFLAEEVAKRPDRFLAFAALPLQDVDAATEELQRCVNDLGFVGAMVNGFSQEGDGQTPLYYDLPQYRPFWGEVEKLDVPFYLHPRNPLPQDSRIYDGHPWLLGPTWAFAQETAVHALRLMASGLFDEHPRLNIILGHMGEGLPYMMYRIDHRIAWVKAPPDYPAKRRFMDYFLENFHITTSGNFRTQTLIDAILEIGADRILFSTDWPFENIDHAADWFAATSIAEADRVKIGRTNARRLFKLDGR
modifications: Dicamba decarboxylase variant
B9: 545 (protein)
chain: MAQGLVALEEHFAIPETLQDAAGFVPGDYWKELQHRLLDMQDTRLKEMDRHGIGTMVLSLAAPAVQAIPDRRKAIELARRANDFLAEEVAKRPDRFLAFAALPLQDVDAATEELQRCVNDLGFVGAMVNGFSQEGDGQTPLYYDLPQYRPFWGEVEKLDVPFYLHPRNPLPQDARIYDGHPWLLGPTWAFAQETAVHALRLMASGLFDEHPRLNIILGHMGEGLPYMMYRIDHRIAWVKAPPDYPAKRRFMDYFLENFHITTSGNFRTQTLIDAILEIGADRILFSTDWPFENIDHAADWFNATSIAEADRVKIGRTNARRLFKLDGR
modifications: Dicamba decarboxylase variant
B10: 553 (protein)
chain: MAQGLVALEEHFAIPETLQDAAGFVPGCYWKELQHRLLDIQDTRLKEMDKHEIGTMVLSLAAPAVQAIPDRRKAIEIARRANDFLAEEVAKRPDRFLAFAALPLQDVDAATEELQRCVADLGFVGAMVNGFSQEGDGQTPLYYDLPQYRPFWGEVEKLDVPFYLHPRNPLPQDSRIYDGHPWLLGPTWAFAQETAVHALRLMASGLFDEHPRLNIILGHMGEGLPYMMYRIDHRIAWVKAPPDYPAKRRFMDYFLENFWITTSGNFRTQTLIDAILEIGADRILFSTDWPFENIDHAADWFNATSIAEADRVKIGRTNARRLFKLDVR
modifications: Dicamba decarboxylase variant
B11: 552 (protein)
chain: MAQGLVALEEHFAIPETLQDAAGFVPGDYWKELQHRLLDIQDTRLKEMDKHGIGTMILSLAAPAVQAIPDRRKAIELARRANDFLAEEVAKRPDRFLAFAALPLQDVDAATEELQRCVADLGFVGAMVNGFSQEGDGQTPLYYDLPQYRPFWKEVEKLDVPFYLHPRNPLPQDSRIYDGHPWLLGPTWAFAQETAVHALRLMASGLFDEHPRLNIILGHMGEGLPYMMYRIDHRIAWVKAPPDYPAKRRFMDYFLENFHITTSGNFRTQTLIDAILEIGADRILFSTDWPFENIDHAADWFNATSIAEADRVKIGRTNARNLFKLDGR
modifications: Dicamba decarboxylase variant
B12: 550 (protein)
chain: MAQGKVALEEHFAIPETLQDAAGFVPGCYWKELQHRLLDIQDTRLKEMDKHEIGTMVLSLAAPAVQAIPDRRKAIELARRANDFLAEEVAKRPDRFLAFAALPLQDVDAATEELQRCVNDLGFVGAMVNGFSQEGDGQTPLYYDLPQYRPFWGEVEKLDVPFYLHPRNPLPQDSRIYDGHPWLLGPTWAFAQETAVHALRLMASGLFDEHPRLNIILGHMGEGLPYMMYRIDHRIAWVKAPPRYPAKRRFMDYFLENFHITTSGNFRTQTLIDAILEIGADRILFSTDWPFENIDHAADWFAATSIAEADRVKIGRTNARRLFKLDVR
modifications: Dicamba decarboxylase variant
B13: 551 (protein)
chain: MAQGKVALEEHFAIPETLQDAAGFVPGDYWKELQHRLLDMQDERLKEMDKHEIGTMVLSLAAPAVQAIPDRRKAIELARRANDFLAEEVAKRPDRFLAFAALPLQDVDAATEELQRCVNDLGFVGAMVNGFSQEGDGQTPLYYDLPQYRPFWGEVEKLDVPFYLHPRNPLPQDSRIYDGHPWLLGPTWAFAQETAVHALRLMASGLFDEHPRLNIILGHMGEGLPYMMYRIDHRIAWVKAPPDYPAKRRFMDYFLENFHITTSGNFRTQTLIDAILEIGADRILFSTDWPFENIDHAADWFNATSIAEADRVKIGRTNARRLFKLDGR
modifications: Dicamba decarboxylase variant
B14: 472 (protein)
chain: MAQGKVALEEHFAIPETLNDAAGFVPGDYWKELQHRLLDIQDQRLRLMDKHEIGTMILSLAAPAVQAIPDRRKAIEIARRANDFLAEEVAKRPDRFLAFAALPLQDPDAATEELQRCVNDLGFVGAMVNGFSQEGDGQTPLYYDLPQYRPFWKEVEKLDVPFYLHPRNPLPQDSRIYDGHPWLLGPTWAFAQETAVHALRLMASGLFDEHPGLNIILGHMGEGLPYMMYRIDHRIAWVKAPPDYPAKRRFMDYFLENFHITTSGNFRTQTLIDAILEIGADRILFSTDWPFENIDHAAAWFNATSIAEADRVKIGRTNARRLFKLDGR
modifications: Dicamba decarboxylase variant
B15: 473 (protein)
chain: MAQGKVALEEHFAIPETLQDAAGFVPGDYWKELQHRLLDIQDTRLKLMDKHEIETMILSLAAPAVQAIPDRRKAIEIARRANDFLAEEVAKRPDRFLAFAALPLQDPDAATEELQRCVRDLGFVGAMVNGFSQEGDGQTPLYYDLPQYRPFWGEVEKLDVPFYLHPRNPLPQDSRIYDGHPWLLGPTWAFAQETAVHALRLMASGLFDEHPGLNIILGHLGEGLPYMMYRIDHRIAWVKAPPDYPAKRRFMDYFLENFHITTSGNFRTQTLIDAILEIGADRILFSTDWPFENIDHAAAWFNATSIAEADRVKIGRTNARRLFKLDGR
modifications: Dicamba decarboxylase variant

Assay: Shuffled variant libraries: 14CO2 capturing assay in 384-well format
[1] = decarboxylation activity (carbon dioxide released) compared with unmutated backbone protein SEQ ID NO 509 (DDEC0810)
[2] = decarboxylation activity (carbon dioxide released) compared with unmutated backbone protein SEQ ID NO 380 (DDEC0301)

Molecule	Fold Activity [1]	Fold Activity [2]
B1	1.2	–
B2	0.9	–
B3	1.6	–
B4	1.0	–
B5	0.9	–
B6	1.1	–
B7	0.8	–
B8	1.3	–
B9	1.1	–
B10	0.9	–
B11	1.7	–
B12	1.1	–
B13	1.0	–
B14	–	1.4
B15	–	1.9
